Results: the supplement of paper PMC9876800

Test system: peptide library, one residue held at a place counted from the S/T acceptor
Assay: relative phosphorylation of the sub-library (ratio to the mean residue at this position); higher = residue favoured
Method in brief: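 Purified recombinant kinases, either human or orthologue constructs, were incubated in 384-well plates with biotinylated degenerate peptide sub-libraries. Each sub-library fixed one residue at one position around a central Ser/Thr. Peptides at 50 μM and 50 μM ATP spiked with γ-32P-ATP were used for 90 min under kinase-specific conditions, and spots on streptavidin membranes were phosphorimaged and quantified by densitometry. Relative sub-library phosphorylation is expressed as a ratio to the mean residue at that position.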

Chain of TLK2, construct: aa388-end, human (Q86UE8 388-772, looked up): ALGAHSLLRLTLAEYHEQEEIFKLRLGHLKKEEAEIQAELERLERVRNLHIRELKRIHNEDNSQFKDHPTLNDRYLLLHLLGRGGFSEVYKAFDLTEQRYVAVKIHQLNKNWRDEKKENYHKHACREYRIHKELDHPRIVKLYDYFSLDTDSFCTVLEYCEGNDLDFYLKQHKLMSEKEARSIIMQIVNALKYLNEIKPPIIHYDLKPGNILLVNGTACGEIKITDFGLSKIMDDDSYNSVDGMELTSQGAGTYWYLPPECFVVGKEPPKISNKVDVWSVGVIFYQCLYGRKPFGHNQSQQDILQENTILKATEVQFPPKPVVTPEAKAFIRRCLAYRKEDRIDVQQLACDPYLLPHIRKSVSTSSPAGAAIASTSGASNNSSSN
Chain of GRK4, construct: Full length, human (P32298 whole entry, looked up): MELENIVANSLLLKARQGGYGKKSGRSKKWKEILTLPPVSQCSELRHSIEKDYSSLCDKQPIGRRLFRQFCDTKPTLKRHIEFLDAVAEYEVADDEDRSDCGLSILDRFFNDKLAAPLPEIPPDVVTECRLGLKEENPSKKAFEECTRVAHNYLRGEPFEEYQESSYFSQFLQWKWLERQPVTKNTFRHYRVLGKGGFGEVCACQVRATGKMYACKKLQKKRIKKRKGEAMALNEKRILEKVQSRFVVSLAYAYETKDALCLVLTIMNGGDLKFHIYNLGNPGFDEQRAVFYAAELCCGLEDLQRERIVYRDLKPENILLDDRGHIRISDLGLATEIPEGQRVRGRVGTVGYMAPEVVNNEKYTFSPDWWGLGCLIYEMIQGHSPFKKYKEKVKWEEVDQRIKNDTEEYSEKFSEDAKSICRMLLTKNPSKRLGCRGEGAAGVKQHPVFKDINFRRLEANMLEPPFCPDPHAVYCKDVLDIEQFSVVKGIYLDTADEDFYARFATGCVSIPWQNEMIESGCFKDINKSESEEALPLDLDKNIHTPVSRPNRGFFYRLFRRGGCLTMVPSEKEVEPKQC

GRK4, construct: Full length, human (from UniProt P32298)
relative phosphorylation
Conditions | at +1 | at +2 | at +3 | at +4 | at -1 | at -2 | at -3 | at -4 | at -5
A fixed | 0.613 | 1.5 | 0.747 | 0.859 | 0.654 | 0.895 | 0.863 | 0.994 | 1
D fixed | 0.683 | 1.24 | 1.53 | 1.65 | 1.57 | 2.39 | 1.88 | 1.75 | 1.83
E fixed | 1.41 | 0.872 | 1.57 | 1.51 | 1.2 | 1.95 | 1.88 | 1.69 | 1.48
F fixed | 1.52 | 1.23 | 1.51 | 1.17 | 0.998 | 0.992 | 0.902 | 0.854 | 0.992
G fixed | 0.577 | 0.879 | 0.953 | 0.928 | 0.619 | 0.983 | 0.927 | 0.965 | 1.02
H fixed | 0.879 | 0.954 | 0.99 | 0.911 | 1.92 | 0.855 | 0.911 | 0.897 | 0.991
I fixed | 1.57 | 1.54 | 0.741 | 0.779 | 0.637 | 0.649 | 0.697 | 0.752 | 0.695
K fixed | 0.455 | 0.414 | 0.432 | 0.614 | 0.492 | 0.547 | 0.612 | 0.778 | 0.89
L fixed | 1.01 | 0.356 | 0.763 | 0.777 | 0.882 | 0.619 | 0.745 | 0.835 | 0.796
M fixed | 1.44 | 0.717 | 0.918 | 0.894 | 0.792 | 0.681 | 0.858 | 0.874 | 0.794
N fixed | 0.674 | 0.753 | 0.685 | 0.906 | 1.28 | 1.18 | 1.03 | 1.05 | 0.954
P fixed | 0.249 | 0.522 | 0.928 | 1.3 | 0.607 | 0.77 | 1.2 | 0.977 | 0.892
Q fixed | 1.28 | 0.613 | 0.662 | 0.903 | 0.805 | 0.872 | 0.912 | 0.839 | 0.86
R fixed | 0.602 | 0.408 | 0.554 | 0.654 | 0.542 | 0.789 | 0.787 | 0.797 | 0.814
V fixed | 1.75 | 1.85 | 0.782 | 0.855 | 1.21 | 0.71 | 0.721 | 0.812 | 0.773
W fixed | 1.16 | 1.73 | 2.11 | 1.29 | 0.812 | 1.21 | 0.941 | 1.09 | 1.25
Y fixed | 1.12 | 1.43 | 1.12 | 1 | 1.97 | 0.903 | 1.13 | 1.05 | 0.975
pThr fixed | 1.45 | 0.994 | 1.12 | 2.32 | 0.656 | 3.34 | 3.2 | 1.75 | 1.4
pTyr fixed | 1.46 | 1.33 | 1.25 | 1.81 | 1.73 | 3.38 | 2.82 | 2.06 | 1.71

TLK2, construct: aa388-end, human (from UniProt Q86UE8)
relative phosphorylation
Conditions | at +1 | at +2 | at +3 | at +4 | at -1 | at -2 | at -3 | at -4 | at -5
A fixed | 0.501 | 0.95 | 1.3 | 1.23 | 1.13 | 1.14 | 1.07 | 1.1 | 1.22
D fixed | 0.281 | 1.07 | 1.01 | 1.06 | 0.949 | 2.24 | 2 | 1.67 | 1.91
E fixed | 0.329 | 0.512 | 1.33 | 0.879 | 0.751 | 3.21 | 1.46 | 1.68 | 1.45
F fixed | 0.533 | 1.32 | 1.19 | 1.26 | 1.04 | 0.553 | 0.674 | 0.878 | 0.801
G fixed | 0.36 | 1.69 | 1.69 | 1.24 | 0.72 | 1.69 | 1.42 | 1.27 | 1.19
H fixed | 0.799 | 1.45 | 0.932 | 0.899 | 1.6 | 1.05 | 0.979 | 1.07 | 1.05
I fixed | 0.995 | 0.768 | 0.583 | 0.843 | 0.542 | 0.435 | 0.531 | 0.668 | 0.621
K fixed | 0.624 | 0.451 | 0.52 | 0.603 | 0.95 | 0.502 | 0.702 | 0.703 | 0.879
L fixed | 1.34 | 0.873 | 0.654 | 0.867 | 0.61 | 0.418 | 0.637 | 0.678 | 0.663
M fixed | 2.11 | 1.27 | 0.823 | 0.913 | 0.862 | 0.592 | 0.77 | 0.857 | 0.737
N fixed | 2.41 | 0.671 | 0.682 | 0.692 | 1.29 | 1.22 | 1.26 | 1.19 | 1.08
P fixed | 0.225 | 1.03 | 1.66 | 1.79 | 0.634 | 0.77 | 1.36 | 1.17 | 1
Q fixed | 2.67 | 1.19 | 0.765 | 0.782 | 1.23 | 1.06 | 0.972 | 0.852 | 0.865
R fixed | 1.53 | 0.482 | 0.483 | 0.506 | 0.827 | 0.499 | 0.743 | 0.674 | 0.814
V fixed | 1.06 | 0.675 | 0.814 | 0.944 | 0.807 | 0.495 | 0.584 | 0.684 | 0.72
W fixed | 0.686 | 1.62 | 1.42 | 1.35 | 1.58 | 0.5 | 0.953 | 1.06 | 1.1
Y fixed | 0.543 | 0.974 | 1.13 | 1.13 | 1.48 | 0.638 | 0.879 | 0.803 | 0.894
pThr fixed | 0.552 | 0.633 | 1.09 | 1.41 | 0.434 | 0.883 | 1.29 | 1.31 | 1.31
pTyr fixed | 0.65 | 1.52 | 1.94 | 1.76 | 1.4 | 2.55 | 1.35 | 1.36 | 1.4

PRKCE, construct: Full length, human (from UniProt Q02156)
relative phosphorylation
Conditions | at +1 | at +2 | at +3 | at +4 | at -1 | at -2 | at -3 | at -4 | at -5
A fixed | 0.507 | 0.48 | 0.795 | 0.905 | 1.06 | 0.774 | 0.669 | 1.12 | 1.16
D fixed | 0.169 | 0.162 | 0.342 | 0.375 | 0.373 | 0.296 | 0.223 | 0.455 | 0.383
E fixed | 0.165 | 0.138 | 0.347 | 0.334 | 0.312 | 0.308 | 0.235 | 0.558 | 0.35
F fixed | 1.7 | 0.528 | 0.831 | 0.561 | 0.588 | 0.69 | 0.691 | 0.783 | 1.28
G fixed | 0.525 | 0.366 | 1.01 | 0.967 | 1.59 | 0.908 | 0.731 | 1.08 | 1.05
H fixed | 0.66 | 1.02 | 1.25 | 1.16 | 0.936 | 1.1 | 1.09 | 1.16 | 1.12
I fixed | 1.43 | 0.515 | 0.619 | 0.6 | 0.44 | 0.393 | 0.435 | 0.689 | 0.935
K fixed | 2.1 | 4.18 | 2.99 | 3.19 | 2.52 | 2.35 | 2.17 | 2.11 | 1.67
L fixed | 1.15 | 0.441 | 0.746 | 0.567 | 0.679 | 0.425 | 0.466 | 0.639 | 0.934
M fixed | 1.18 | 0.566 | 0.581 | 0.62 | 0.813 | 0.528 | 0.545 | 0.833 | 0.744
N fixed | 0.577 | 0.501 | 0.661 | 0.921 | 0.997 | 0.834 | 0.552 | 0.822 | 0.665
P fixed | 0.473 | 0.357 | 0.604 | 1.07 | 1.21 | 0.623 | 0.708 | 0.919 | 0.921
Q fixed | 1.01 | 0.543 | 0.7 | 0.931 | 0.949 | 0.957 | 0.64 | 0.894 | 0.753
R fixed | 2.4 | 4.74 | 3.01 | 2.59 | 2.49 | 4.46 | 5.89 | 2.3 | 1.93
V fixed | 1.32 | 0.537 | 0.67 | 0.634 | 0.611 | 0.529 | 0.413 | 0.808 | 0.757
W fixed | 0.717 | 0.516 | 0.891 | 0.961 | 0.471 | 1.12 | 0.613 | 1.02 | 1.39
Y fixed | 0.928 | 1.4 | 0.95 | 0.607 | 0.968 | 0.701 | 0.934 | 0.82 | 0.956
pThr fixed | 0.851 | 0.471 | 0.573 | 0.688 | 0.378 | 0.561 | 0.657 | 0.799 | 0.932
pTyr fixed | 0.505 | 0.525 | 0.731 | 0.569 | 0.528 | 0.535 | 0.678 | 0.625 | 0.989
